Experimental data as given in patent publication US20250066745A1, “MUTANTS AND USE THEREOF” (BGI SHENZHEN, priority 2021, published 2025).

Legend:
Assay type in all cases: biochemical
Design in all cases: key to Activity of mutant relative to wild-type Gaussia luciferase without the signal peptide: ratio of mutant luminescence intensity to wild-type Gaussia luciferase
[1] = Luminescence activity assay of purified Gaussia luciferase mutants on coelenterazine derivative ZS2; conditions: Substrate ZS2 (Table 16)
Description: (§1) In this Example, the protein concentration was determined with a BCA quantitative kit (Thermo Scientific™ Pierce™ BCA Protein Assay Kit) accurately. The purified luciferase obtained in Example 5 was diluted with diluent (50 mM Tris-HCl, pH 8.0, 100 mM NaCl, 0.1% (v/v) Tween-20) to 1 μg/mL. The diluted luciferase, taken for 10 μL, was moved into a black 96-well plate, then added with 90 μL of the substrates coelenterazine, fluoro-coelenterazine or coelenterazine derivative ZS2 (purchased from Biolab) which was diluted into 100 μM with the same diluent, and the luminescence intensity of the plate was read with a self-luminescence module of a microplate reader. The mutation site of the mutant, the measured luminescence intensity, the ratio of luminescence intensities of the advantageous mutants to the wild-type Gaussia luciferase without the signal peptide having the sequence shown in SEQ ID NO: 3 are shown in Table 15. The results of catalytic activity assay of the advantageous mutants relative to the wild-type Gaussia luciferase without the signal peptide having the sequence shown in SEQ ID NO: 3 on substrate coelenterazine are shown in FIG. 6. […] The results of catalytic activity assay of the advantageous mutants relative to the wild-type Gaussia luciferase without the signal peptide having the sequence shown in SEQ ID NO: 3 on substrate fluoro-coelenterazine are shown in FIG. 7.
(§2) The new mutant library constructed in Example 7 was screened and tested for substrate specificity. Expression and purification schemes were the same as that in Example 5, and the activity assay scheme was the same as that in Example 6. The respective catalytic activities of combinatorial mutants on coelenterazine, fluoro-coelenterazine or coelenterazine derivative ZS2, and coelenterazine derivative ZS26 (purchased from BIOLAB) were assayed, and comparisons among the substrate specificities of the combinatorial mutants were based on the ratios of catalytic activities on two corresponding substrates.

[2] = Luminescence activity assay of purified Gaussia luciferase mutants on coelenterazine; conditions: Substrate CTZ (Table 16)
Description: as §1, §2

[3] = Luminescence activity assay of purified Gaussia luciferase mutants on fluoro-coelenterazine; conditions: Substrate f-CTZ (Table 16)
Description: as §1, §2

| Molecule | Activity of mutant relative to wild-type Gaussia luciferase without the signal peptide [1] | Activity of mutant relative to wild-type Gaussia luciferase without the signal peptide [2] | Activity of mutant relative to wild-type Gaussia luciferase without the signal peptide [3] |
| --- | --- | --- | --- |
| F26I N27D V29D A30G A32E S33G A36T L40S del117-119 D139H: Gaussia luciferase mutant (protein, SIGNAL (1)..(17), Gaussia luciferase mutant) MGVKVLFALICIAVAEAKPTENNEDIDIDGVEGNFTTTDSDADRGKLPGKKLPLEVLKEMEANARKAGCTRGCLICLSHIKCTPKMKKFIPGRCHTYEGDKESAQGGIGEAIVDIPGFKDLEPMEQFIAQVDLCVHCTTGCLKGLANVQCSDLLKKWLPQRCATFASKIQGQVDKIKGAGGD | 0.010 | 0.043 |  |
| F26R N27D V29D A30G A32D S33N T37A L40P: Gaussia luciferase mutant (protein, SIGNAL (1)..(17), Gaussia luciferase mutant) MGVKVLFALICIAVAEAKPTENNEDRDIDGVDNNFAATDPDADRGKLPGKKLPLEVLKEMEANARKAGCTRGCLICLSHIKCTPKMKKFIPGRCHTYEGDKESAQGGIGEAIVDIPEIPGFKDLEPMEQFIAQVDLCVDCTTGCLKGLANVQCSDLLKKWLPQRCATFASKIQGQVDKIKGAGGD | 0.031 | 0.031 | 0.049 |
| F26I N27H V29G A32G S33D A36G T37L L40I: Gaussia luciferase mutant (protein, SIGNAL (1)..(17), Gaussia luciferase mutant) MGVKVLFALICIAVAEAKPTENNEDIHIGAVGDNFGLTDIDADRGKLPGKKLPLEVLKEMEANARKAGCTRGCLICLSHIKCTPKMKKFIPGRCHTYEGDKESAQGGIGEAIVDIPEIPGFKDLEPMEQFIAQVDLCVDCTTGCLKGLANVQCSDLLKKWLPQRCATFASKIQGQVDKIKGAGGD | 0.479 | 0.055 |  |
| F26C V29Y S33G A36I T37E L40T: Gaussia luciferase mutant (protein, SIGNAL (1)..(17), Gaussia luciferase mutant) MGVKVLFALICIAVAEAKPTENNEDCNIYAVAGNFIETDTDADRGKLPGKKLPLEVLKEMEANARKAGCTRGCLICLSHIKCTPKMKKFIPGRCHTYEGDKESAQGGIGEAIVDIPEIPGFKDLEPMEQFIAQVDLCVDCTTGCLKGLANVQCSDLLKKWLPQRCATFASKIQGQVDKIKGAGGD | 1.131 | 0.016 |  |
| F26I N27D V29S A30G V31L A32V S33D A36V T37E L40G: Gaussia luciferase mutant (protein, SIGNAL (1)..(17), Gaussia luciferase mutant) MGVKVLFALICIAVAEAKPTENNEDIDISGLVDNFVETDGDADRGKLPGKKLPLEVLKEMEANARKAGCTRGCLICLSHIKCTPKMKKFIPGRCHTYEGDKESAQGGIGEAIVDIPEIPGFKDLEPMEQFIAQVDLCVDCTTGCLKGLANVQCSDLLKKWLPQRCATFASKIQGQVDKIKGAGGD | 2.094 | 0.788 |  |
| F26I A30D A32V S33G A36D T37K L40V: Gaussia luciferase mutant (protein, SIGNAL (1)..(17), Gaussia luciferase mutant) MGVKVLFALICIAVAEAKPTENNEDINIVDVVGNFDKTDVDADRGKLPGKKLPLEVLKEMEANARKAGCTRGCLICLSHIKCTPKMKKFIPGRCHTYEGDKESAQGGIGEAIVDIPEIPGFKDLEPMEQFIAQVDLCVDCTTGCLKGLANVQCSDLLKKWLPQRCATFASKIQGQVDKIKGAGGD | 2.392 | 0.636 |  |
| F26D N27D V290 A30D V31I S33R T37L: Gaussia luciferase mutant (protein) MGVKVLFALICIAVAEAKPTENNEDDDIVDIARNFALTDLDADRGKLPGKKLPLEVLKEMEANARKAGCTRGCLICLSHIKCTPKMKKFIPGRCHTYEGDKESAQGGIGEAIVDIPEIPGFKDLEPMEQFIAQVDLCVDCTTGCLKGLANVQCSDLLKKWLPQRCATFASKIQGQVDKIKGAGGD | 0.213 | 1.110 |  |
| F26G N27Y A30D V31L A32V S33R A36M T37E L40G: Gaussia luciferase mutant (protein, SIGNAL (1)..(17), Gaussia luciferase mutant) MGVKVLFALICIAVAEAKPTENNEDGYIVDLVRNFMETDGDADRGKLPGKKLPLEVLKEMEANARKAGCTRGCLICLSHIKCTPKMKKFIPGRCHTYEGDKESAQGGIGEAIVDIPEIPGFKDLEPMEQFIAQVDLCVDCTTGCLKGLANVQCSDLLKKWLPQRCATFASKIQGQVDKIKGAGGD | 1.203 | 0.003 |  |
| F26L N27D A30D V31L A32V S33N A36N T37A L40S: Gaussia luciferase mutant (protein, SIGNAL (1)..(17), Gaussia luciferase mutant) MGVKVLFALICIAVAEAKPTENNEDLDIVDLVNNFNATDSDADRGKLPGKKLPLEVLKEMEANARKAGCTRGCLICLSHIKCTPKMKKFIPGRCHTYEGDKESAQGGIGEAIVDIPEIPGFKDLEPMEQFIAQVDLCVDCTTGCLKGLANVQCSDLLKKWLPQRCATFASKIQGQVDKIKGAGGD | 1.802 | 0.799 |  |
| F26D N27H V29K A30G A32G S33L T37L L40R: Gaussia luciferase mutant (protein, SIGNAL (1)..(17), Gaussia luciferase mutant) MGVKVLFALICIAVAEAKPTENNEDDHIKGVGLNFALTDRDADRGKLPGKKLPLEVLKEMEANARKAGCTRGCLICLSHIKCTPKMKKFIPGRCHTYEGDKESAQGGIGEAIVDIPEIPGFKDLEPMEQFIAQVDLCVDCTTGCLKGLANVQCSDLLKKWLPQRCATFASKIQGQVDKIKGAGGD | 0.381 | 0.037 |  |
| F26L N27D V29P A30G V31I A32G S33A A36T T37C L40E I112T: Gaussia luciferase mutant (protein, SIGNAL (1)..(17), Gaussia luciferase mutant) MGVKVLFALICIAVAEAKPTENNEDLDIPGIGANFTCTDEDADRGKLPGKKLPLEVLKEMEANARKAGCTRGCLICLSHIKCTPKMKKFIPGRCHTYEGDKESAQGGIGEATVDIPEIPGFKDLEPMEQFIAQVDLCVDCTTGCLKGLANVQCSDLLKKWLPQRCATFASKIQGQVDKIKGAGGD | 0.395 | 0.001 |  |
| F26I V29F A30G A32E S33D A36N T37D L40T: Gaussia luciferase mutant (protein, SIGNAL (1)..(17), Gaussia luciferase mutant) MGVKVLFALICIAVAEAKPTENNEDINIFGVEDNFNDTDTDADRGKLPGKKLPLEVLKEMEANARKAGCTRGCLICLSHIKCTPKMKKFIPGRCHTYEGDKESAQGGIGEAIVDIPEIPGFKDLEPMEQFIAQVDLCVDCTTGCLKGLANVQCSDLLKKWLPQRCATFASKIQGQVDKIKGAGGD | 0.000 | 1.120 |  |
| F26L N27D V29A V31L A32D S33N T37E L40T: Gaussia luciferase mutant (protein, SIGNAL (1)..(17), Gaussia luciferase mutant) MGVKVLFALICIAVAEAKPTENNEDLDIAALDNNFAETDTDADRGKLPGKKLPLEVLKEMEANARKAGCTRGCLICLSHIKCTPKMKKFIPGRCHTYEGDKESAQGGIGEAIVDIPEIPGFKDLEPMEQFIAQVDLCVDCTTGCLKGLANVQCSDLLKKWLPQRCATFASKIQGQVDKIKGAGGD | 0.191 | 0.000 |  |
| F26L N27D V29D A30G S33N A36I T37D L40R: Gaussia luciferase mutant (protein, SIGNAL (1)..(17), Gaussia luciferase mutant) MGVKVLFALICIAVAEAKPTENNEDLDIDGVANNFIDTDRDADRGKLPGKKLPLEVLKEMEANARKAGCTRGCLICLSHIKCTPKMKKFIPGRCHTYEGDKESAQGGIGEAIVDIPEIPGFKDLEPMEQFIAQVDLCVDCTTGCLKGLANVQCSDLLKKWLPQRCATFASKIQGQVDKIKGAGGD | 1.989 | 0.726 |  |
